T1: Mft1 (S. cerevisiae, UniProt P33441 1-392)
T1 sequence: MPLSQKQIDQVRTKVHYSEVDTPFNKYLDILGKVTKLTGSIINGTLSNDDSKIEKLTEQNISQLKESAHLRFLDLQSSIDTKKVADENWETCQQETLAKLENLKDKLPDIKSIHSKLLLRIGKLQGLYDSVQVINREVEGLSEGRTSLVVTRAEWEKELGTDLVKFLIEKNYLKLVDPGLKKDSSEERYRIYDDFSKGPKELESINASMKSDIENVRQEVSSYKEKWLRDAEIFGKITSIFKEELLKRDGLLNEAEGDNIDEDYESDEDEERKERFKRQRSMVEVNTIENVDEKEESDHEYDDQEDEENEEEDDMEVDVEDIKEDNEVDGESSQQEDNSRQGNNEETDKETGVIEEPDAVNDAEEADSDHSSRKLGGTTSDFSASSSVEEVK


How the values were obtained:
[1] = biological target: T1, Mft1; experiment: cross-linking
[2] = biological target: Tho2 (S. cerevisiae, UniProt P53552 1-1597); experiment: affinity purification with mass spectrometry
Sequence of Tho2 (P53552 whole entry): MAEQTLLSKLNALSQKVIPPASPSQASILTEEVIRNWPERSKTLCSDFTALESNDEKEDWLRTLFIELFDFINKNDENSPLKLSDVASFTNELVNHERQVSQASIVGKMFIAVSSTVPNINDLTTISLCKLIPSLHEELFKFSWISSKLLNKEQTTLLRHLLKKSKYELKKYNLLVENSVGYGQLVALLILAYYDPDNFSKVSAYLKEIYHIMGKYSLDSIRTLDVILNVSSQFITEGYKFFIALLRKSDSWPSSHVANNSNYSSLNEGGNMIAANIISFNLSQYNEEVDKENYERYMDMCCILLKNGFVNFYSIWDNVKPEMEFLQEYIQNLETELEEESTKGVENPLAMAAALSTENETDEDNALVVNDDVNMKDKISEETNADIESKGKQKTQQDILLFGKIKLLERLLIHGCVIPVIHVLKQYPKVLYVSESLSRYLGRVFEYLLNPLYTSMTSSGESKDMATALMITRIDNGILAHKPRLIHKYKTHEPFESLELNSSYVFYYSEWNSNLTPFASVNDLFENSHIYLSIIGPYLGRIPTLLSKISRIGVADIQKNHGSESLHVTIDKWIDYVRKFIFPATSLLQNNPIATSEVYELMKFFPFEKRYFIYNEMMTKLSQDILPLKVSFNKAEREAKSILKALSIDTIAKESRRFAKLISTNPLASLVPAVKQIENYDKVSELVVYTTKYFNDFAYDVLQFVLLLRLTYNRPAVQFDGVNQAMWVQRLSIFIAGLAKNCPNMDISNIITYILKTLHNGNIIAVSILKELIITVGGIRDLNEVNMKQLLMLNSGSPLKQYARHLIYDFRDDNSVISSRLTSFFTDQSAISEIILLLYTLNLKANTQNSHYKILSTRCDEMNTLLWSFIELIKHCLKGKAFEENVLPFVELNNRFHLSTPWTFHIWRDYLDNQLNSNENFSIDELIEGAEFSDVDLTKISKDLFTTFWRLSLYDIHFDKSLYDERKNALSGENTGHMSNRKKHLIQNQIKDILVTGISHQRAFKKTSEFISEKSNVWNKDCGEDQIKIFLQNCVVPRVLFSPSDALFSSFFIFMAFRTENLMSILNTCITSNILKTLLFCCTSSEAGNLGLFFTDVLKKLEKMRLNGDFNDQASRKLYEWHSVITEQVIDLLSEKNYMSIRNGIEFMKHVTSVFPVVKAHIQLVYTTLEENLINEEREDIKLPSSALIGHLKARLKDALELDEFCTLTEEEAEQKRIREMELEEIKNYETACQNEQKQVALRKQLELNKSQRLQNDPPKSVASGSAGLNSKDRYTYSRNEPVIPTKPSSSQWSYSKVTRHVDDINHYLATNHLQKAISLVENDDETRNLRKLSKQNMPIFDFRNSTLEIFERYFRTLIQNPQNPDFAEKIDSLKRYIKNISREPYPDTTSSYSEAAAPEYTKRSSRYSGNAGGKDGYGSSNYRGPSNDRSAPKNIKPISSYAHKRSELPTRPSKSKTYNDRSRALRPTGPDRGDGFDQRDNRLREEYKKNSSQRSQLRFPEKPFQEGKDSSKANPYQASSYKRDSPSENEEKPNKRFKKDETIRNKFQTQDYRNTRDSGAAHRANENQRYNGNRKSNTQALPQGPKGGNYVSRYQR

Row | binding result [1] | binding result [2] | Binder
1 | binds | – | Thp2 (natural protein) MTKEEGRTYFESLCEEEQSLQESQTHLLNILDILSVLADPRSSDDLLTESLKKLPDLHRELINSSIRLRYDKYQTREAQLLEDTKTGRDVAAGVQNPKSISEYYSTFEHLNRDTLRYINLLKRLSVDLAKQVEVSDPSVTVYEMDKWVPSEKLQGILEQYCAPDTDIRGVDAQIKNYLDQIKMARAKFGLENKYSLKERLSTLTKELNHWRKEWDDIEMLMFGDDAHSMKKMIQKIDSLKSEINAPSESYPVDKEGDIVLE
2 | – | binds | Hpr1 with a C-terminal FLAG-TEV-2xProtein-A (FTpA) tag (natural protein) MSNTEELIQNSIGFLQKTFKALPVSFDSIRHEPLPSSMLHASVLNFEWEPLEKNISAIHDRDSLIDIILKRFIIDSMTNAIEDEEENNLEKGLLNSCIGLDFVYNSRFNRSNPASWGNTFFELFSTIIDLLNSPSTFLKFWPYAESRIEWFKMNTSVEPVSLGESNLISYKQPLYEKLRHWNDILAKLENNDILNTVKHYNMKYKLENFLSELLPINEESNFNRSASISALQESDNEWNRSARERESNRSSDVIFAADYNFVFYHLIICPIEFAFSDLEYKNDVDRSLSPLLDAILEIEENFYSKIKMNNRTRYSLEEALNTEYYANYDVMTPKLPVYMKHSNAMKMDRNEFWANLQNIKESDDYTLRPTIMDISLSNTTCLYKQLTQEDDDYYRKQFILQLCFTTNLIRNLISSDETRNFYKSCYLRENPLSDIDFENLDEVNKKRGLNLCSYICDNRVLKFYKIKDPDFYRVIRKLMSSDEKFTTAKIDGFKEFQNFRISKEKIPPPAFDETFKKFTFIKMGNKLINNVWKIPTGLDKIEQEVKKPEGVYEAAQAKWESKISSETSGGEAKDEIIRQWQTLRFLRSRYLFDFDKVNEKTGVDGLFEEPRKVEALDDSFKEKLLYKINQEHRKKLQDAREYKIGKERKKRALEEEASFPEREQKIKSQRINSASQTEGDELKSEQTQPKGEISEENTKIKSSEVSSQDPDSGVAGEFAPQNTTAQLENPKTEDNNAATSNISNGSSTQDMK

— doi:10.1101/2023.06.23.546279 (bioRxiv, 2023)
